Publication PMC8291497 (ACS Chemical Biology, 2021)
Where no end group is shown, it is not given here. The star is where a group is joined. Dansyl = CN(C)c1cccc2c(S(=O)(=O)*)cccc12

Experiments:
Assay in all cases: stopped-flow fluorescence kinetics
Conditions in all cases: both partners purified
[1] = target: pseudo-wild type (pWT) PARM domain of Mint2 (residues 364-570, Y524W) (human, UniProt Q99767 364-570, Y524W)
[2] = target: PTB without the ARM linker (Mint2 residues 364-538) (human, UniProt Q99767 364-538, Y524W)
Sequence of PTB without the ARM linker (Mint2 residues 364-538) (Q99767 364-538 Y524W): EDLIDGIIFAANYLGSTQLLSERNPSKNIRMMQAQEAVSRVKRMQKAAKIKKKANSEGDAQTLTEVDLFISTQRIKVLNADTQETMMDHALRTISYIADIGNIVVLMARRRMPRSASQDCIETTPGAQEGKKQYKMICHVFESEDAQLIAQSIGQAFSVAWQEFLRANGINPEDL

PARM^Y543A = PARM^Y543A (human, UniProt Q99767 364-570, Y524W | Y543A)
Sequence of PARM^Y543A (Q99767 364-570 Y524W/Y543A): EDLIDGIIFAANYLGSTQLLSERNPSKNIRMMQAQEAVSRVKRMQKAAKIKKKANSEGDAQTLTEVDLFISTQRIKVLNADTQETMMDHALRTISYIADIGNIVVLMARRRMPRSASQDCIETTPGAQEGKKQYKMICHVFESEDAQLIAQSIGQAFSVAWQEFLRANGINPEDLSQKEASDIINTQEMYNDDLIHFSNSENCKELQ

PARM^Y543E = PARM^Y543E (human, UniProt Q99767 364-570, Y524W | Y543E)
Sequence of PARM^Y543E (Q99767 364-570 Y524W/Y543E): as the sequence (Q99767 364-570 Y524W/Y543A) above, with A180E counted along it

Measured: binding result

Sequence of pseudo-wild type (pWT) PARM domain of Mint2 (residues 364-570, Y524W) (Q99767 364-570 Y524W): as the sequence (Q99767 364-570 Y524W/Y543A) above, with A180Y counted along it

Dansyl-NGYENPTYKAFE [dansyl-APP F764A]
binds: [1] | [2] | PARM^Y543A | PARM^Y543E

Dansyl-NGYENGTYKFFE [dansyl-APP P760G]
binds: [1] | [2] | PARM^Y543A | PARM^Y543E

Dansyl-NGYENPTYKGFE [dansyl-APP F764G]
binds: [1] | [2] | PARM^Y543A | PARM^Y543E

Dansyl-NGYENPTYKFAE [dansyl-APP F765A]
binds: [1] | [2] | PARM^Y543A | PARM^Y543E

Dansyl-NGYENATYKFFE [dansyl-APP P760A]
binds: [1] | [2] | PARM^Y543A | PARM^Y543E

Dansyl-NGFENPTYKFFE [dansyl-APP Y757F]
binds: [1] | [2] | PARM^Y543A | PARM^Y543E

Dansyl-NGYENPTYGFFE [dansyl-APP K763G]
binds: [1] | [2] | PARM^Y543A | PARM^Y543E

Dansyl-NGYENPTYKFGE [dansyl-APP F765G]
binds: [1] | [2] | PARM^Y543A | PARM^Y543E

Dansyl-NGYENPTFKFFE [dansyl-APP Y762F]
binds: [1] | [2] | PARM^Y543A | PARM^Y543E

Dansyl-NGYENPTYAFFE [dansyl-APP K763A]
binds: [1] | [2] | PARM^Y543A | PARM^Y543E
